The numbers were not newly measured in paper PMC4987277, which cites them from elsewhere.

In the data set the target is C3d C3d (Homo sapiens) (UniProt P01024).
Chain of C3d C3d (Homo sapiens) (P01024 1002-1303): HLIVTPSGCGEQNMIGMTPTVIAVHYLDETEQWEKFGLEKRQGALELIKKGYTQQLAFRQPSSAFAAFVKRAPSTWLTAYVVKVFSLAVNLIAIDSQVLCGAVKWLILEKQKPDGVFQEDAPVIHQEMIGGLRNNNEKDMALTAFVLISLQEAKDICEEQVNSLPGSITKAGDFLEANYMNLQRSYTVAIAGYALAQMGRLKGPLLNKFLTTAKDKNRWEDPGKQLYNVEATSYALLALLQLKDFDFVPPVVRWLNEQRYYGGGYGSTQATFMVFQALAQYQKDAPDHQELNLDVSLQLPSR

Chain of CR2 (P20023 21-971): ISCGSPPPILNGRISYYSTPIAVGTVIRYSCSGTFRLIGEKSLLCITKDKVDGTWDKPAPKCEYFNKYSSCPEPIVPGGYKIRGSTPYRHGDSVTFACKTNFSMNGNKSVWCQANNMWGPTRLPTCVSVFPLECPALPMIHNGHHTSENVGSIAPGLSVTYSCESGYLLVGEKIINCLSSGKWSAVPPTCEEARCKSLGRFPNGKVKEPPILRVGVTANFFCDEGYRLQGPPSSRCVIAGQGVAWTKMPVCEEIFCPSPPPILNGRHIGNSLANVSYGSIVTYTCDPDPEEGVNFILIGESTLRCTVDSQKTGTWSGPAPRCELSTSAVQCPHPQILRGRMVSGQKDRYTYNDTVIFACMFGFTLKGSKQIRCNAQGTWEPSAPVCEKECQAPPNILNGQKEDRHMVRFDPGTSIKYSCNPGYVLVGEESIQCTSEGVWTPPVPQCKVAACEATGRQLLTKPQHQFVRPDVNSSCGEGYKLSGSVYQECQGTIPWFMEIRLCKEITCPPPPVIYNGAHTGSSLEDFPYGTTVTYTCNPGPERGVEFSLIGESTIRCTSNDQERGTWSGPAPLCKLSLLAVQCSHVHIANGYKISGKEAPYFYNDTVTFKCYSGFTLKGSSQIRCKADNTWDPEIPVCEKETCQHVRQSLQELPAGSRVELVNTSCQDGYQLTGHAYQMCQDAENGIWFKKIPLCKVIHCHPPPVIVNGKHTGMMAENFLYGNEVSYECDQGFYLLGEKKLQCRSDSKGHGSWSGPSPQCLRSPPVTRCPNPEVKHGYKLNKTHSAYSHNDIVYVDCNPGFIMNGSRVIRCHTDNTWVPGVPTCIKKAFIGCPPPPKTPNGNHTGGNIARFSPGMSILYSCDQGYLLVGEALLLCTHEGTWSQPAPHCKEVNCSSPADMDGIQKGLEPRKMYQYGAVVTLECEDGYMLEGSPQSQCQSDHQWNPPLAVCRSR

In the case of CR2 (from UniProt P20023), the Kd is 500 nM.
